The target of assay [1] is HTRA2^PD/PDZ-ΔLoopA (human) (UniProt O43464). Briefly: SEC; HTRA proteins and their LoopA deletion mutants alone; Superdex 200 Increase 3.2/300; 200 mM NaCl, 20 mM HEPES pH 7.5, 0.25% CHAPS; size against gel filtration standard. For orientation: SEC sorts molecules by how far they enter the pores of the column.
Assay [2] addresses HTRA3^PD/PDZ-ΔLoopA (human) (UniProt P83110). The description is as above.

By stoichiometry N is commonly meant a count of units in the complex or per binding partner.

The substance “HTRA2^PD/PDZ-ΔLoopA (from UniProt O43464 134-458) (domain or fragment)” had a stoichiometry N in assay [1] of 3.
As to “HTRA3^PD/PDZ-ΔLoopA (from UniProt P83110 130-453) (domain or fragment)”, the stoichiometry N in assay [2] is 3.
